Laboratory results: paper PMC9020777

Key:
Experiment in all cases: FRET or BRET
Settings in all cases: remark: other sources report otherwise
[1] = biological target: mCerulean3-BCL-XL (human), Q07817
[2] = biological target: mCerulean3-BCL-2 (human), P10415
[3] = biological target: mCerulean3-BCL-2 (^CBCL-2) (human), P10415
[4] = biological target: mCerulean3-MCL-1 (human), Q07820
mCerulean3-MCL-1 (human), Q07820, sequence (Q07820 whole entry): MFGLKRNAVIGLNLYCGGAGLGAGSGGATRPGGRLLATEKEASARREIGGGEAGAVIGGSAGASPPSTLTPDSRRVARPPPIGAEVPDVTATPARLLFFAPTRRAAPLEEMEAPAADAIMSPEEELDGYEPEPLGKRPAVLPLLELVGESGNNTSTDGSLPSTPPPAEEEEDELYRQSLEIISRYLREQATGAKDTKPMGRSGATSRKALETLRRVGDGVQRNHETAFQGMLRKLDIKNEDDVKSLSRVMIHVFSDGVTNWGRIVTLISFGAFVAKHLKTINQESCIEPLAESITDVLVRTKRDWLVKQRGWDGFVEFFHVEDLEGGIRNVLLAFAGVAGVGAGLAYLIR

mCerulean3-BCL-2 (human), P10415, sequence (P10415 whole entry): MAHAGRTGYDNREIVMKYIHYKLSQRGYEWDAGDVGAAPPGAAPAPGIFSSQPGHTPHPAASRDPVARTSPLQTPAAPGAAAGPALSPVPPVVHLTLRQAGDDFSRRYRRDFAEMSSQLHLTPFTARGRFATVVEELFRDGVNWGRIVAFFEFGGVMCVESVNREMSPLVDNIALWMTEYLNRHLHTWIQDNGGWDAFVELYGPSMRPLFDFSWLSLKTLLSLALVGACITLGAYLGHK
mCerulean3-BCL-XL (human), Q07817, sequence (Q07817 whole entry): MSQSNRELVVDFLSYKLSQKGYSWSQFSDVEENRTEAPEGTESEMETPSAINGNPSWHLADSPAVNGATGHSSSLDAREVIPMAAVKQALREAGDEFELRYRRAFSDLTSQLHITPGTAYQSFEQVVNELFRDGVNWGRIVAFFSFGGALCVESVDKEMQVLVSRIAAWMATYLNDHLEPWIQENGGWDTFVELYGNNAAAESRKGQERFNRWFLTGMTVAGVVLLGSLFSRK
mCerulean3-BCL-2 (^CBCL-2) (human), P10415, sequence (P10415 whole entry): as the sequence (P10415 whole entry) above

Row | Kd [1] | Kd [2] | Kd [3] | Kd [4] | Binder
1 | 7 µM | 4 µM |  |  | Venus-BAD, Q92934 1-168 (natural protein) MFQIPEFEPSEQEDSSSAERGLGPSPAGDGPSGSGKHHRQAPGLLWDASHQQEQPTSSSHHGGAGAVEIRSRHSSYPAGTEDDEGMGEEPSPFRGRSRSAPPNLWAAQRYGRELRRMSDEFVDSFKKGLPRPKSAGTATQMRQSSSWTRVFQSWWDRNLGRGSSAPSQ
2 |  |  | 8 µM |  | Venus-NOXA (^VNOXA), Q13794 1-54 (natural protein) MPGKKARKNAQPSPARAPAELEVECATQLRRFGDKLNFRQKLLNLISKLFCSGT
3 |  | 3 µM |  | 6 µM | Venus-BIK, Q13323 1-160 (natural protein) MSEVRPLSRDILMETLLYEQLLEPPTMEVLGMTDSEEDLDPMEDFDSLECMEGSDALALRLACIGDEMDVSLRAPRLAQLSEVAMHSLGLAFIYDQTEDIRDVLRSFMDGFTTLKENIMRFWRSPNPGSWVSCEQVLLALLLLLALLLPLLSGGLHLLLK
